Experimental data taken from publication PMC5373596, “Metal-dependent SpoIIE oligomerization stabilizes FtsZ during asymmetric division in Bacillus subtilis” (PLoS ONE, 2017).
Blank lines part the entries; values can stand above or below the binder they belong to.

B2: strep-tagged-SpoIIEcyt (cytoplasmic part of SpoIIE, MBP removed) (domain or fragment, B. subtilis 168, UniProt P37475 326-827, looked up)
chain: RKVARYIPGTVEHLQEQQQYARKIRDVTAQKVDQFSNVFHALSESFATFYQASDEQTDDSEVDLFLSKITEHSCQTCYKKNRCWVQNFDKTYDLMKQVMLETEEKEYASNRRLKKEFQQYCSKSKQVEELIEDELAHHHAHLTLKKKVQDSRRLVAEQLLGVSEVMADFSREIKREREQHFLQEEQIIEALQHFGIEIQHVEIYSLEQGNIDIEMTIPFSGHGESEKIIAPMLSDILEEQILVKAEQHSPHPNGYSHVAFGSTKSYRVSTGAAHAAKGGGLVSGDSYSMMELGARKYAAAISDGMGNGARAHFESNETIKLLEKILESGIDEKIAIKTINSILSLRTTDEIYSTLDLSIIDLQDASCKFLKVGSTPSFIKRGDQVMKVQASNLPIGIINEFDVEVVSEQLKAGDLLIMMSDGIFEGPKHVENHDLWMKRKMKGLKTNDPQEIADLLMEEVIRTRSGQIEDDMTVVVVRIDHNTPKWASIPVPAIFQNKQEIS
notes: SpoIIE of Bacillus subtilis 168, domains II and III (cytoplasmic part), amino acids 326-827; called a 501 residue fragment; also called s-SpoIIEcyt; strep-SpoIIEcyt; not shown: MBP, N-terminal, cleaved; strep-tag, N-terminal, kept

Assays:
[1] = biological target: the molecule itself; test: co-sedimentation; 10 μM ms-SpoIIEcyt in 50 mM MES/NaOH pH 6.5, 50 mM KCl; after 1 mM EDTA, 5 mM MnCl2 added for 30 min; spun at 186,000 x g, supernatant and pellet on SDS-PAGE
[2] = biological target: the molecule itself; test: transmission electron microscopy; 10 μM FtsZ with or without 1.5 μM s-SpoIIEcyt, or 1.5 μM s-SpoIIEcyt alone with 10 mM MnCl2, in 50 mM Tris/HCl pH 7.5, 300 mM KCl with 1 mM EDTA or 10 mM MgCl2 or 10 mM MnCl2; GTP or GDP; samples taken after 30 min at 30°C
[3] = biological target: B2; test: 90° light scattering; 10 μM FtsZ and/or 1.5 μM s-SpoIIEcyt in 50 mM Tris/HCl pH 7.5, 300 mM KCl, 10 mM MgCl2; 2 mM GTP or GDP added after 90 s; 30°C; controls of FtsZ alone with Mn2+ or EDTA; details: both partners purified
[4] = biological target: the molecule itself; test: as above

B1: MBP-strep-tag-SpoIIEcyt fusion protein (cytoplasmic part of SpoIIE, domains II and III) (domain or fragment, B. subtilis 168, UniProt P37475 326-827, looked up)
chain: RKVARYIPGTVEHLQEQQQYARKIRDVTAQKVDQFSNVFHALSESFATFYQASDEQTDDSEVDLFLSKITEHSCQTCYKKNRCWVQNFDKTYDLMKQVMLETEEKEYASNRRLKKEFQQYCSKSKQVEELIEDELAHHHAHLTLKKKVQDSRRLVAEQLLGVSEVMADFSREIKREREQHFLQEEQIIEALQHFGIEIQHVEIYSLEQGNIDIEMTIPFSGHGESEKIIAPMLSDILEEQILVKAEQHSPHPNGYSHVAFGSTKSYRVSTGAAHAAKGGGLVSGDSYSMMELGARKYAAAISDGMGNGARAHFESNETIKLLEKILESGIDEKIAIKTINSILSLRTTDEIYSTLDLSIIDLQDASCKFLKVGSTPSFIKRGDQVMKVQASNLPIGIINEFDVEVVSEQLKAGDLLIMMSDGIFEGPKHVENHDLWMKRKMKGLKTNDPQEIADLLMEEVIRTRSGQIEDDMTVVVVRIDHNTPKWASIPVPAIFQNKQEIS
notes: SpoIIE of Bacillus subtilis 168, domains II and III (cytoplasmic part), amino acids 326-827; called a 501 residue fragment; Order on the chain: MBP (from pMalC2x), short strep-tag, SpoIIE 326-827; Co-purifies with about 2 Fe per protein; also called ms-SpoIIEcyt; source: E. coli BL21-RIL, purified (amylose resin, eluted with maltose); not shown: MBP, N-terminal, kept; strep-tag, N-terminal, kept
binding result [1]: binds

Binder: B2
binding result [2]: binds

binding result [3]: binds
B3: FtsZ (natural protein, B. subtilis, UniProt P17865 1-382, looked up)
chain: MLEFETNIDGLASIKVIGVGGGGNNAVNRMIENEVQGVEYIAVNTDAQALNLSKAEVKMQIGAKLTRGLGAGANPEVGKKAAEESKEQIEEALKGADMVFVTAGMGGGTGTGAAPVIAQIAKDLGALTVGVVTRPFTFEGRKRQLQAAGGISAMKEAVDTLIVIPNDRILEIVDKNTPMLEAFREADNVLRQGVQGISDLIATPGLINLDFADVKTIMSNKGSALMGIGIATGENRAAEAAKKAISSPLLEAAIDGAQGVLMNITGGTNLSLYEVQEAADIVASASDQDVNMIFGSVINENLKDEIVVTVIATGFIEQEKDVTKPQRPSLNQSIKTHNQSVPKREPKREEPQQQNTVSRHTSQPADDTLDIPTFLRNRNKRG
notes: Cell division protein FtsZ of Bacillus subtilis; source: purified as described [25], > 95% purity
binding result [4]: binds
